Data reported in publication PMC10397247.
Where two headings read alike, the source gives them in different places.

Experiments:
[1] = molecular target: T1, 4H428-AA; assay: two-hybrid library CCmax; conditions: mean of both orientations;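 also: natural log of median RNA to DNA barcode read ratio; higher means stronger binding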
T1 chain: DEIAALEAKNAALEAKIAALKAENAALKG

[2] = molecular target: T2, 4H189-AA; assay: two-hybrid library CCmax; conditions: mean of both orientations;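 also: natural log of median RNA to DNA barcode read ratio; higher means stronger binding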
T2 chain: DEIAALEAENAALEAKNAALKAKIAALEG

[3] = molecular target: T3, 4H2948-AA; assay: two-hybrid library CCmax; conditions: mean of both orientations;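 also: natural log of median RNA to DNA barcode read ratio; higher means stronger binding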
T3 chain: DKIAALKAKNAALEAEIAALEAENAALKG

[4] = molecular target: T4, 4H3066-AA; assay: two-hybrid library CCmax; conditions: mean of both orientations;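 also: natural log of median RNA to DNA barcode read ratio; higher means stronger binding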
T4 chain: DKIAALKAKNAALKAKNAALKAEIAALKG

[5] = molecular target: T5, 4H2991-AA; assay: two-hybrid library CCmax; conditions: mean of both orientations;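 also: natural log of median RNA to DNA barcode read ratio; higher means stronger binding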
T5 chain: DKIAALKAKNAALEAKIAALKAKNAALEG

[6] = molecular target: T6, 4H2248-AA; assay: two-hybrid library CCmax; conditions: mean of both orientations;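 also: natural log of median RNA to DNA barcode read ratio; higher means stronger binding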
T6 chain: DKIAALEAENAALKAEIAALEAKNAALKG

[7] = molecular target: T7, 4H971-AA; assay: two-hybrid library CCmax
T7 chain: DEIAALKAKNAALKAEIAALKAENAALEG

[8] = molecular target: T8, 4H3029-AA; assay: two-hybrid library CCmax; conditions: mean of both orientations
T8 chain: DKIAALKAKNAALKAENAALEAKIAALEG

[9] = molecular target: T9, 4H3446-AA; assay: two-hybrid library CCmax; conditions: mean of both orientations
T9 chain: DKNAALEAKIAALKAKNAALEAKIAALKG

[10] = molecular target: T10, 4H675-AA; assay: two-hybrid library CCmax; conditions: mean of both orientations
T10 chain: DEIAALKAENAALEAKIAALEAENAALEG

[11] = molecular target: T11, 4H3920-AA; assay: two-hybrid library CCmax; conditions: mean of both orientations
T11 chain: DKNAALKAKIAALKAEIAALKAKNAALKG

[12] = molecular target: T12, 4H3591-AA; assay: two-hybrid library CCmax; conditions: mean of both orientations
T12 chain: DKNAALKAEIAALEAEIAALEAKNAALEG

[13] = molecular target: T13, 4H656-AA; assay: two-hybrid library CCmax; conditions: mean of both orientations
T13 chain: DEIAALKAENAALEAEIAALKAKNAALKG

[14] = molecular target: T14, 4H3709-AA; assay: two-hybrid library CCmax; conditions: mean of both orientations
T14 chain: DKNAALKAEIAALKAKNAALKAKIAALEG

[15] = molecular target: T15, 4H478-AA; assay: two-hybrid library CCmax; conditions: mean of both orientations
T15 chain: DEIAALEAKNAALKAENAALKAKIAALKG

[16] = molecular target: T16, 4H497-AA; assay: two-hybrid library CCmax; conditions: mean of both orientations
T16 chain: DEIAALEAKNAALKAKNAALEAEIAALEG

[17] = molecular target: T17, 4H1854-AA; assay: two-hybrid library CCmax; conditions: mean of both orientations
T17 chain: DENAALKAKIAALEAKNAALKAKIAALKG

[18] = molecular target: T18, 4H3666-AA; assay: two-hybrid library CCmax; conditions: mean of both orientations
T18 chain: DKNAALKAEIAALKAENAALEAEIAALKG

[19] = molecular target: T19, 4H1809-AA; assay: two-hybrid library CCmax
T19 chain: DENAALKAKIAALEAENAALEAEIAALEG

[20] = molecular target: T20, 4H3102-AA; assay: two-hybrid library CCmax; conditions: mean of both orientations
T20 chain: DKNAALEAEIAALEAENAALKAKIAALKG

[21] = molecular target: T21, 4H3628-AA; assay: two-hybrid library CCmax; conditions: mean of both orientations
T21 chain: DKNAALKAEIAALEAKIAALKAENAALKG

[22] = molecular target: T22, 4H3121-AA; assay: two-hybrid library CCmax; conditions: mean of both orientations
T22 chain: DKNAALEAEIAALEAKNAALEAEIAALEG

[23] = molecular target: T23, 4H2713-AA; assay: two-hybrid library CCmax; conditions: mean of both orientations
T23 chain: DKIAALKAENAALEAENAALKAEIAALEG

[24] = molecular target: T24, 4H2742-AA; assay: two-hybrid library CCmax; conditions: mean of both orientations
T24 chain: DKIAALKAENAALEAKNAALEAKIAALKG

[25] = molecular target: T25, 4H2283-AA; assay: two-hybrid library CCmax; conditions: mean of both orientations
T25 chain: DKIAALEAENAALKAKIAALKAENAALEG

[26] = molecular target: T26, 4H3417-AA; assay: two-hybrid library CCmax; conditions: mean of both orientations
T26 chain: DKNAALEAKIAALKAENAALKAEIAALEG

[27] = molecular target: T27, 4H391-AA; assay: two-hybrid library CCmax; conditions: mean of both orientations
T27 chain: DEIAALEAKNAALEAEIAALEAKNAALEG

[28] = molecular target: T28, 4H3939-AA; assay: two-hybrid library CCmax; conditions: mean of both orientations
T28 chain: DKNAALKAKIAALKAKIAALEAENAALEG

[29] = molecular target: T29, P9A-bP; assay: two-hybrid library CCNG1
T29 chain: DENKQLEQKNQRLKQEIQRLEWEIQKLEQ

[30] = molecular target: T30, P8A-bP; assay: two-hybrid library CCNG1
T30 chain: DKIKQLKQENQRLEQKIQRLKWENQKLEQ

[31] = molecular target: T31, P6A-bP; assay: two-hybrid library CCNG1
T31 chain: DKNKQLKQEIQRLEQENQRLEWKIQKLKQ

[32] = molecular target: T32, P7A-bP; assay: two-hybrid library CCNG1
T32 chain: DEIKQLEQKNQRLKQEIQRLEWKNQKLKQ

[33] = molecular target: T33, 4H2931-bH; assay: two-hybrid library CCNG1
T33 chain: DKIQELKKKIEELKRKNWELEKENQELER

[34] = molecular target: T34, 4H3364-bH; assay: two-hybrid library CCNG1
T34 chain: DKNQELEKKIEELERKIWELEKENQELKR

[35] = molecular target: T35, 4H2859-bH; assay: two-hybrid library CCNG1
T35 chain: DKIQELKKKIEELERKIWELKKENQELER

[36] = molecular target: T36, 4H3297-bH; assay: two-hybrid library CCNG1
T36 chain: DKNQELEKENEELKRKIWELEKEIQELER

[37] = molecular target: T37, 4H949-bH; assay: two-hybrid library CCNG1
T37 chain: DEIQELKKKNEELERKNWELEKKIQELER

[38] = molecular target: T38, 4H3381-bH; assay: two-hybrid library CCNG1
T38 chain: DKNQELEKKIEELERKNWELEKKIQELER

[39] = molecular target: T39, 4H796-bH; assay: two-hybrid library CCNG1
T39 chain: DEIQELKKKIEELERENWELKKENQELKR

[40] = molecular target: T40, 4H932-bH; assay: two-hybrid library CCNG1
T40 chain: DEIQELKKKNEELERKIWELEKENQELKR

[41] = molecular target: T41, 4H349-bH; assay: two-hybrid library CCNG1
T41 chain: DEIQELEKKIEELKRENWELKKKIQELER

[42] = molecular target: T42, 4H3041-bH; assay: two-hybrid library CCNG1
T42 chain: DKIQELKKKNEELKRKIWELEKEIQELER

[43] = molecular target: T43, 4H491-bA; assay: two-hybrid library CCNG1
T43 chain: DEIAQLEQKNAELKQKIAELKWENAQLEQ

[44] = molecular target: T44, 4H730-bH; assay: two-hybrid library CCNG1
T44 chain: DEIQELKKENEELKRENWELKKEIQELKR

[45] = molecular target: T45, 4H56-bH; assay: two-hybrid library CCNG1
T45 chain: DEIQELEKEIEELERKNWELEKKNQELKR

[46] = molecular target: T46, 4H2839-bH; assay: two-hybrid library CCNG1
T46 chain: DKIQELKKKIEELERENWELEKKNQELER

[47] = molecular target: T47, 4H477-bH; assay: two-hybrid library CCNG1
T47 chain: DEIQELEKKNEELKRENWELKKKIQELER

[48] = molecular target: T48, 4H3057-bH; assay: two-hybrid library CCNG1
T48 chain: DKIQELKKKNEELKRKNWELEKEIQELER

[49] = molecular target: T49, 4H3277-bH; assay: two-hybrid library CCNG1
T49 chain: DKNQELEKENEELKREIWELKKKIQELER

[50] = molecular target: T50, 4H492-bH; assay: two-hybrid library CCNG1
T50 chain: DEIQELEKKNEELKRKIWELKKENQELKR

[51] = molecular target: T51, 4H2585-bH; assay: two-hybrid library CCNG1
T51 chain: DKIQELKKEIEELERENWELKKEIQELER

[52] = molecular target: T52, 4H2717-bH; assay: two-hybrid library CCNG1
T52 chain: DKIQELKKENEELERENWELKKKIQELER

[53] = molecular target: T53, 4H2915-bH; assay: two-hybrid library CCNG1
T53 chain: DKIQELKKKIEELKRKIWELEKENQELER

[54] = molecular target: T54, 4H741-bH; assay: two-hybrid library CCNG1
T54 chain: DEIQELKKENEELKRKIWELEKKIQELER

[55] = molecular target: T55, 4H2692-bH; assay: two-hybrid library CCNG1
T55 chain: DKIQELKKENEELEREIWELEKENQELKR

[56] = molecular target: T56, 4H40-bH; assay: two-hybrid library CCNG1
T56 chain: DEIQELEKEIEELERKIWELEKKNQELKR

[57] = molecular target: T57, 4H348-bH; assay: two-hybrid library CCNG1
T57 chain: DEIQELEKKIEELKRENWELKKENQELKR

[58] = molecular target: T58, 4H2588-bH; assay: two-hybrid library CCNG1
T58 chain: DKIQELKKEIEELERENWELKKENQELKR

[59] = molecular target: T59, 4H319-bH; assay: two-hybrid library CCNG1
T59 chain: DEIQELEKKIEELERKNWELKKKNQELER

[60] = molecular target: T60, O16-bN; assay: two-hybrid library CCNG1
T60 chain: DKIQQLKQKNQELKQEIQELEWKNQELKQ

DENAALKAKIAALEAENAALEAEIAALEG [4H1809-AA]
interaction score [1]: -0.837 | interaction score [2]: -0.354 | interaction score [3]: -1.16 | interaction score [4]: 0.194 | interaction score [5]: -0.235 | interaction score [6]: -0.294 | interaction score ([7]; mean of both orientations): 0.362 | interaction score [8]: -2.28 | interaction score [9]: 1.42 | interaction score [10]: -1.74 | interaction score [11]: -0.86 | interaction score [12]: -1.94 | interaction score [13]: -1.1 | interaction score [14]: 1.51 | interaction score [15]: 0.898 | interaction score [16]: -1.51 | interaction score [17]: 2.32 | interaction score [18]: -1.2 | interaction score [19]: -0.349 | interaction score [20]: 2.27 | interaction score [21]: -1.29 | interaction score [22]: -1.18 | interaction score [23]: -1.63 | interaction score [24]: -1.29 | interaction score [25]: 1.16 | interaction score [26]: -0.579 | interaction score [27]: -1.47 | interaction score [28]: -1.45

DKNKQLKQEIQRLEQENQRLEWKIQKLKQ [P6A-bP]
interaction score [29]: -0.616 | interaction score [30]: -0.264 | interaction score [31]: -0.494 | interaction score [32]: 0.418

DKIQELKKKIEELERKIWELKKENQELER [4H2859-bH]
interaction score [33]: -0.182 | interaction score [34]: 1.02 | interaction score [35]: 1.11 | interaction score [36]: 0.299 | interaction score [37]: -1.01 | interaction score [38]: 0.199 | interaction score [39]: -0.548 | interaction score [40]: -0.5 | interaction score [41]: -0.11 | interaction score [42]: 1.2 | interaction score [43]: 1.08 | interaction score [44]: -0.682 | interaction score [45]: 0.547

DEIAALEAENAALEAENAALEAEIAALKG [4H146-AA]
interaction score [1]: -1.8 | interaction score [2]: -0.199 | interaction score [3]: -1.48 | interaction score [4]: 1.92 | interaction score [5]: -0.675 | interaction score [6]: -1.75 | interaction score [7]: 0.134 | interaction score [8]: 2.06 | interaction score [9]: -0.572 | interaction score [10]: -2.03 | interaction score [11]: 0.785 | interaction score [12]: -1.28 | interaction score [13]: -1.76 | interaction score [14]: -0.0632 | interaction score [15]: 1.98 | interaction score [16]: 0.786 | interaction score [17]: 1.2 | interaction score [18]: -0.984 | interaction score ([19]; mean of both orientations): -1.69 | interaction score [20]: -1.45 | interaction score [21]: -1.8 | interaction score [22]: -1.69 | interaction score [23]: 0.457 | interaction score [24]: 0.586 | interaction score [25]: -1.02 | interaction score [26]: -0.477 | interaction score [27]: -1.68 | interaction score [28]: -1.52

DKIQELEKKNEELKREIWELEKKNQELER [4H2503-bH]
interaction score [46]: 0.527 | interaction score [47]: -0.993 | interaction score [48]: 0.435 | interaction score [49]: -0.644 | interaction score [50]: -0.241 | interaction score [51]: -1.1 | interaction score [52]: -0.106 | interaction score [53]: 0.0935 | interaction score [54]: 0.303 | interaction score [55]: 0.839 | interaction score [56]: -2.05 | interaction score [57]: -0.941 | interaction score [58]: -0.858 | interaction score [59]: -0.903

DEIAQLEQKNAELKQKIAELKWENAQLEQ [4H491-bA]
interaction score [43]: -0.879 | interaction score [60]: 0.749
